The target in assay [1] is T1, eIF4E, purified recombinant human full-length (human, UniProt P06730 1-217).
T1 construct: eIF4E, human, full-length clone in pET11d; m7GTP was present at immobilisation and in the crystals; also called pure eIF4E; eukaryotic translation initiation factor 4E
Briefly: fluorescence polarisation; competition: eIF4E 200 nM, FAM-labelled eIF4G1 peptide 50 nM, VH domains titrated; PBS pH 7.4, 0.1% Tween 20. To be noted: both partners purified. A general note: Fluorescence polarisation rises when a labelled molecule tumbles more slowly, as on binding a larger partner.

Assay [2] addresses T1, eIF4E, purified recombinant human …. The assay can be described thus: SPR; 4E-BP1^4ALA over eIF4E amine-coupled to a CM5 chip; single or multi cycle not told; fitted with a 1:1 model (poor fit) and then with a 2-state model; n = 3. To be noted: both partners purified. Background: SPR reads the build-up and loss of mass on a sensor chip optically.

FAM = carboxyfluorescein label

T1 sequence (P06730 whole entry): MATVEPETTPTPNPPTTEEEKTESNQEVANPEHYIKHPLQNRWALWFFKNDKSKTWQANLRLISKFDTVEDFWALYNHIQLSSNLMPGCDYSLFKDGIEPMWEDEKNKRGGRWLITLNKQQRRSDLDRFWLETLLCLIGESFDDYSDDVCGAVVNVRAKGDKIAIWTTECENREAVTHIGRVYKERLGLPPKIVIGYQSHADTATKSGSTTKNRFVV

B1: FAM labelled eIF4G1 peptide (Ac-KKRYSRDFLLALQK-(FAM)-NH2) (peptide)
peptide: Ac-KKRYSRDFLLALQK(FAM)-NH2
notes: also called labelled peptide; tracer peptide; source: synthetic peptide; bought: Mimotopes
Turning to B1, the binding result in assay [1] is listed as “binds”.

B2: 4E-BP1^4ALA, purified (natural protein, UniProt Q13541 1-118, looked up)
chain: MSGGSSCSQTPSRAIPATRRVVLGDGVQLPPGDYSTAPGGTLFSTAPGGTRIIYDRKFLMECRNAPVTKAPPRDLPTIPGVTSPSSDEPPMEASQSHLRNSPEDKRAGGEESQFEMDI
As usually defined, the Kd is the free concentration of one partner at which half of the binding sites on the other are occupied at equilibrium, for simple one-to-one binding. Regarding B2, the Kd in assay [2] was determined as 0.68 nM.

The values are drawn from paper PMC9388512 (Nature Communications, 2022).
